2 molecules from patent publication US20260116960A1 (SHANGHAI HONGCHENG BIOPHARMACEUTICAL, published 2026) can be followed below.

The target of assay [1] is T1, Biotinylated Human VEGF165 (Acro, Catalog No. VE5-H82Q0) (human, UniProt P15692-4 27-191, biotinylated (site not stated)).
T1 construct: Bought protein; also called Biotinylated-hVEGF165; Biotin-hVEGF165
Briefly: flow cytometry: antibody titrated on 293T-hPD-1-hCTLA-4 cells, detected with 2 ug/mL biotin-hVEGF165 and PE streptavidin. The method, then: After centrifugation at 300 g for 5 minutes, the supernatant was discarded, and 100 μL of trispecific antibody solution serially diluted 3-fold with FACS buffer was added, with a starting concentration of 200 nM, and the same volume of FACS buffer was added as a negative control. After mixing, incubated at 4° C. for 60 minutes. After centrifugation and washing three times with FACS buffer, 2 μg/mL Biotin-hVEGF165 was added at 100 μL/well and incubated at 4° C. for 60 minutes. After centrifugation and washing three times with FACS buffer, 100 μL/well of 1:800 diluted PE Streptavidin (BD, Catalog No.: 554061) was added and incubated at 4° C. for 50 minutes. After centrifugation and washing three times with FACS buffer, 100 μL/well of FACS buffer was added to resuspend the cells, and the fluorescence signal was detected on a flow cytometer (BECKMAN COULTER cytoFLEX). The binding activity was fitted using a four-parameter model, and the EC₅₀ value of each antibody binding was calculated.

The target in assay [2] is T2, human PD-1 on the cell surface (human, UniProt Q15116 25-288).
T2 construct: whole, on cells; also called cell surface PD-1
Briefly: flow cytometry, 293T-hPD-1 cells, batch FACS#1. The method, then: (§1) After centrifugation at 300 g for 5 minutes, the supernatant was discarded. The antibodies were serially diluted 3-fold with FACS buffer to obtain two gradient series solution FACS #1 and FACS #2, with the starting concentration of 200 nM (Table 5, FACS #1) or 100 nM (Table 5, FACS #2, FIG. 2), respectively. Then 100 μL/well was added to a 96-well plate in triplicate, mixed, and incubated at 4° C. for 60 min. The plate was centrifuged and washed three times with FACS buffer. 100 μL/well of 1:800 diluted AF647-anti-hIgG(H+L) (Jackson, Catalog No.: 109-605-003) was added and incubated at 4° C. for 50 minutes. After washing the plate three times with FACS buffer, 100 μL/well of FACS buffer was added to resuspend the cells, and the fluorescence signal was detected on a flow cytometer (BECKMAN COULTER cytoFLEX). The binding activity was fitted using a four-parameter model to calculate the EC₅₀ value of each antibody binding to PD-1.

In assay [3] the target is T3, human CTLA-4 on the cell surface (human, UniProt P16410 36-223).
T3 construct: whole, on cells; also called CHO-hCTLA-4 cells; CHOK1-hCTLA4 cells
Kind of assay: flow cytometry, CHO-hCTLA-4 cells, batch FACS#3. On the technique in general: In flow cytometry, cells or beads pass a laser one at a time.

The target of assay [4] is T2, human PD-1 on the cell surface. Kind of assay: flow cytometry competition, 293T-hPD-1 cells, biotin-human PD-L1.
For assay [5], the target named is T3, human CTLA-4 on the cell surface. Kind of assay: flow cytometry, CHO-hCTLA-4 cells, batch FACS#4.
Assay [6] has the same target. Briefly: flow cytometry competition, CHO-hCTLA-4 cells, biotin-human CD80. The method, then:
CHO-hCTLA-4 cells were obtained by trypsin digestion, washed twice with PBS containing 2% FBS (FACS buffer), and resuspended in FACS buffer. 200 μL of the cells were added to a 96-well U-bottom plate, approximately 2×10⁵ cells/well. After centrifugation at 300 g for 5 minutes, the supernatant was discarded. […] After washing three times with FACS buffer, 100 μL/well of 1:800 diluted PE Streptavidin was added and incubated at 4° C. for 50 min. After washing three times with FACS buffer, 150 μL/well of PBS was added to resuspend the cells, and the fluorescence signal was detected on a flow cytometer (BECKMAN COULTER cytoFLEX). The four-parameter model was used to fit the binding activity and the IC₅₀ value of the blocking activity of each antibody was calculated.

For assay [7], the target named is T2, human PD-1 on the cell surface. Briefly: flow cytometry, 293T-hPD-1 cells, batch FACS#2. The protocol:
as §1

Assay [8] deals with T4, human VEGF165-his protein (Acro, Catalog No. VE5-H5248) (human, UniProt P15692-4 27-191).
T4 construct: Bought protein; also called hVEGF165-His; VEGFA; not shown: his tag
Briefly: competitive ELISA, VEGF165-His coated, biotin-human KDR.

T3 sequence (P16410 36-223): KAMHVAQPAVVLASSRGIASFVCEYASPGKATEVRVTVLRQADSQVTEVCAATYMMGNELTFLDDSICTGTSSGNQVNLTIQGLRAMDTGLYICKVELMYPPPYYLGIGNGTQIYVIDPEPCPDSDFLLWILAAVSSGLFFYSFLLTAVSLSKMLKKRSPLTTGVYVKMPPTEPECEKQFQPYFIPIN
T2 sequence (Q15116 25-288): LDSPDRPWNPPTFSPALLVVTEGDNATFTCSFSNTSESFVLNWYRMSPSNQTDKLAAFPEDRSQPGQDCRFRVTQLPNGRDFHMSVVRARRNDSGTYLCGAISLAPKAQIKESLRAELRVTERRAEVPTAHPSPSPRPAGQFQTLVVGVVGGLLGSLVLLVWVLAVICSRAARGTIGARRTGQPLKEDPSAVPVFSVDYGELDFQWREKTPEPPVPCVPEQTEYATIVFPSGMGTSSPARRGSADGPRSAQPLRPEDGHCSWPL
T1 sequence (P15692 other isoform, or with tags, fused parts or gaps limits assumed): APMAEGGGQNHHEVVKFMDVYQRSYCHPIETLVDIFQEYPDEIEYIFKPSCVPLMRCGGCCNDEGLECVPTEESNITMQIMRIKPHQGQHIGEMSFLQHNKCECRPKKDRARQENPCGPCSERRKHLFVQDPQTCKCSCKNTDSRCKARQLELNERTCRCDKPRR
T4 sequence (P15692 other isoform, or with tags, fused parts or gaps limits assumed): as above

B1: HC010-F9 (trispecific antibody, human IgG4 S228P, kappa)
heavy: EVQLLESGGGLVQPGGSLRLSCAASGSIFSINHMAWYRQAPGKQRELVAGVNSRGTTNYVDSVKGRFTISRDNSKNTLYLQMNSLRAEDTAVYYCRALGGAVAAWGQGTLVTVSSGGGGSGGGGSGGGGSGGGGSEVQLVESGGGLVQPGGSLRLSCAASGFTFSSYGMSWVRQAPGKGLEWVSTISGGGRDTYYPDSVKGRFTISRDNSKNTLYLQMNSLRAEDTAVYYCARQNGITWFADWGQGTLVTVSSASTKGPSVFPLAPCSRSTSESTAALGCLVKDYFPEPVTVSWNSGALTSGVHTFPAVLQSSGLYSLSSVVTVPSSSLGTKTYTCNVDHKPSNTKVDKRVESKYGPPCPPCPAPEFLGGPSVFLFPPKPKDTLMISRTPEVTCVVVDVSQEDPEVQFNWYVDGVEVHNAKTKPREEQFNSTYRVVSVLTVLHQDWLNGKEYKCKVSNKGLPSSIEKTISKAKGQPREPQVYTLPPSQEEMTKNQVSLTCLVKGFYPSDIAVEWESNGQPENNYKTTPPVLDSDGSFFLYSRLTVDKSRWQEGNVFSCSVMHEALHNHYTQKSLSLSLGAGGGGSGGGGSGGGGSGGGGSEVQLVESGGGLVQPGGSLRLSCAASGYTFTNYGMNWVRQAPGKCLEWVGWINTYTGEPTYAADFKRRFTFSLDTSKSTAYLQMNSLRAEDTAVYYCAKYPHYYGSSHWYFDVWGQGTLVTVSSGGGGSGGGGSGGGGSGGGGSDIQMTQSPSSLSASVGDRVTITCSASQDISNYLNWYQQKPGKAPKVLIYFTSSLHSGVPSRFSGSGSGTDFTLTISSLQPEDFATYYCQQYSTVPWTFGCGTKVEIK
light: DIQMTQSPSSLSASVGDRVTITCRASESVDNYGISFMNWYQQKPGKAPKLLIYAASNQGSGVPSRFSGSGSGTDFTLTISSLQPEDFATYYCQQSKEVPWTFGGGTKVEIKRTVAAPSVFIFPPSDEQLKSGTASVVCLLNNFYPREAKVQWKVDNALQSGNSQESVTEQDSKDSTYSLSSTLTLSKADYEKHKVYACEVTHQGLSSPVTKSFNRGEC
notes: light: CQ1-3/1-11 VL-kappa; also called H010-F9
For the molecule B1, the concentration for a half-maximal effect (EC50) (in general, the concentration at which the effect is half-maximal) in assay [1] is 4.2 nM; in assay [2] it was 3.53 nM; in assay [3], 2.8 nM. The IC50 (usually the concentration at which inhibition is half-maximal) in assay [4] is 5 nM.

B2: HC010-F10 (trispecific antibody, human IgG4 S228P, kappa)
heavy: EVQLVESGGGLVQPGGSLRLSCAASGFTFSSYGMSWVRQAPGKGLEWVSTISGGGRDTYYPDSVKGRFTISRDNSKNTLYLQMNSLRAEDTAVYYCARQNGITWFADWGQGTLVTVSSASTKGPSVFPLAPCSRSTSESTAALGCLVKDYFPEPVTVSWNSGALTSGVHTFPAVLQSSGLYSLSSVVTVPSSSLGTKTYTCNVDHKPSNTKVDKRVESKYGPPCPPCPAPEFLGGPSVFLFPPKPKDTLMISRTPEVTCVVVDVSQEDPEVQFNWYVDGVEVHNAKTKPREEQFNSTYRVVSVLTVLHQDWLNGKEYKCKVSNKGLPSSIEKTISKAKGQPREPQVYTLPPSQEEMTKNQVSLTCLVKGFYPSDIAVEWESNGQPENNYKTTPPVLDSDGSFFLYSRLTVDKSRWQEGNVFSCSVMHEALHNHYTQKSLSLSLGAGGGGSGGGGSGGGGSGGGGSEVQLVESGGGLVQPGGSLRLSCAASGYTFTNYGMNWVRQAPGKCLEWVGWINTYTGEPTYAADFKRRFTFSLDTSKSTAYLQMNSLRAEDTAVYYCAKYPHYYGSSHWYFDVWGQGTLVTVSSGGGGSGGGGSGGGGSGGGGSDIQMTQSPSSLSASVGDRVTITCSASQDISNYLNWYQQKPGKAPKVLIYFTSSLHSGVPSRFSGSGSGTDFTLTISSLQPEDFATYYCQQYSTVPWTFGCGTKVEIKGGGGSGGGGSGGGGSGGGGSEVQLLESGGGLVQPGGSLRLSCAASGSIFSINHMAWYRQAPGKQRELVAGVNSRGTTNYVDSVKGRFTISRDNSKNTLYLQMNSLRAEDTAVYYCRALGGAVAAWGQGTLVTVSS
light: DIQMTQSPSSLSASVGDRVTITCRASESVDNYGISFMNWYQQKPGKAPKLLIYAASNQGSGVPSRFSGSGSGTDFTLTISSLQPEDFATYYCQQSKEVPWTFGGGTKVEIKRTVAAPSVFIFPPSDEQLKSGTASVVCLLNNFYPREAKVQWKVDNALQSGNSQESVTEQDSKDSTYSLSSTLTLSKADYEKHKVYACEVTHQGLSSPVTKSFNRGEC
notes: light: CQ1-3/1-11 VL-kappa; also called H010-F10
As to B2, the concentration for a half-maximal effect (EC50) is 4.9 nM in assay [1]; 4.86 nM in assay [5]; 5.77 nM in assay [2]; 6.19 nM in assay [3]; 2.37 nM in assay [7]. For the same molecule, the half-inhibitory concentration (IC50) in assay [6] came out at 22.6 nM; in assay [4] it was 4.5 nM; in assay [8] it was 6.76 nM.
